According to a protein production outcome set (Wang et al. 2014):

Assay: label from the status in PepcDB records
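Further: failed if final PepcDB status was selected cloned or expressed and not failed if soluble or beyond.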

Sequence	protein production
MSDLLDTVRGLAKKTDSKILMVVLDGVGGLPLTVNGDTELATARTPNLDALAQESQLGQLELVGAGITPGSGPGHLSLFGYDPLKYVVGRGALSAVGIGVKLNRGDVAVRGNFATLGAGRLILDRRAGRPSDEKNAEIVAKLRAAIPEIDGVAVEVYTESEHRFVVVFRAPEGQPLGANISDVDPQVTGVEPKTAIANDPSSEVTAGLINTFVARAEVALADEPQVNGVLFRGYSDVPHFPSFEDAYQLKAACIASYPMYKGLASLVGMDVLPVEGHEDALEGKVKALRENWAKYDFFYFHIKKTDSTGEDGDFAEKVHKIELFDELLPQLLELQPDVIAVVGDHSTPSKLKSHSWHPVPLLIRSNYGRRDPAQRYTEEEAARGTLGLRHGPDLMPLLMANALKLNKYGALEHHHHHH	not failed
MSDMFLPARMRKLKIITLDQYSDSVVRSLHEEGVTQIDDISERIQQDAEWRQILKPSRATPYTGRVSSLLMKTSGILDFLGSVAAEEKGLRDTIREFINPPIFEKREVEELDTESLIERAEETLGRVESETRVMEEKLNELDSERSAVESSLSVAEKLKDFDIDFSDLQDSEYITGIAGRITAENLPELRDKLADITDELVISDREGENKAERILIIVTLKKHADSIASVLRRMEFERFEISELQGRPSEIISSSKTRLEEISRERKEIISKLRDINAEWEDELLVLREQLEIEKERNEVFSLFGETRKTVMLEAWVPLKEADRVIAVVEESSEGTALTDLEDPDPEEVPVLLDNPRFAKPYETFVEMYSPLKYNEIDPTIFMAFVFPFFFGFCLTDAGYGIIDALIGFILYRGLGKVNNFMRNFGIIMMSCGVWAFILGMVTNGFIGDFFPRFFNITLPTVIPAIDAFVNPQNILIMALTVGVLHINFGLILGARNNIRLGNMREALGSQIVWLILELGIILYLVGGMIFGAPLIILAFAMLLYYNGLFGLMDVSGFLGTLLSYARLLALCLSTGGIAMTVNILTGLSYEMIPVIGVVLAPIIFVFGHIANNAFQSLGAFINSLRLHYVEFFAQFYMGGKNKFNAFRAERNFTKIRR	failed
MSDMGVIVKTNARALIPLIGVFGSYIILHGHLTPGGGFQGGATIVGTALLFLIAFGVDEAKKRINKDLYSALEGIGGLVFLGAAMLGLSVAFFYNILWHKGPLFNGRPGTLLSAGFLPIMNLGVGLKVFTGLVSAVFALALFRRWKE	failed
MSDNAKHHRDGHLVASGLQDRAARTPQHEGFLGPDRPWHLSFSLLLAGSFVLFSWWAFDYAGSGANKVILVLATVVGMFMAFNVGGNDVANSFGTSVGAGTLTMKQALLVAAIFEVSGAVIAGGDVTETIRSGIVDLSGVSVDPRDFMNIMLSALSAAALWLLFANRMGYPVSTTHSIIGGIVGAAIALGMVSGQGGAALRMVQWDQIGQIVVSWVLSPVLGGLVSYLLYGVIKRHILLYNEQAERRLTEIKKERIAHRERHKAAFDRLTEIQQIAYTGALARDAVAANRKDFDPDELESDYYRELHEIDAKTSSVDAFRALQNWVPLVAAAGSMIIVAMLLFKGFKHMHLGLTTMNNYFIIAMVGAAVWMATFIFAKTLRGESLSRSTFLMFSWMQVFTASGFAFSHGSNDIANAIGPFAAILDVLRTGAIEGNAAVPAAAMVTFGVALCAGLWFIGRRVIATVGHNLTTMHPASGFAAELSAAGVVMGATVLGLPVSSTHILIGAVLGVGIVNRSTNWGLMKPIVLAWVITLPSAAILASVGLVALRAIF	failed
MSDNALTSSRRFGGIARLYGDSALAHFSQAHVCVVGVGGVGSWAVEALARTGIGRLTLIDLDNVAESNVNRQLHALTGDFGKAKVTALRERITQINPQCEVFEIEDFVTEDNLPEYFGKGFDFVIDAIDQVRVKAAMAAYFVERKQPFVLSGGAGGQKNPALIQTADLSRVTHDPLLANLRYTLRKRYGFSRDTKANMRVPCVYSTENIVPPQSREACSADAAPQGLSCAGYGASMLVTASFGLYCAQAAVEHIADKKLEHHHHHH	not failed
MSDPAIAVLPYGMKLGPALSGLPLDQVNWPLGCPERLVGKTLGDLGAGDHLLVYPRTGTHFQLSRGTRARISLIMAEPAVIHAKHYALLRVTWRRFHRVLTFNQAAVDRLPNARLLLFGSTWVPEWQSLTPEKVAQCSLIASAKRDSTGHKLRHAVVDWVRASDQDVAVLGRGYQPFDSKADGLAPYRYSVVIENVQERNYFSEKLLDAVFCETVPIYWGCPNIADFVDTTAMILCTREEDIRRAVAEMSAEDYAARLPALRALKQQLAPYAAHEARAARMILDELLEHHHHHH	not failed
MSDQPRPTVIITGASSGVGLYATKALANRGWHVIMACRNLEKAEQAAKNLQIPPEAYTILHLDLSSLASVRGFVESFRALNRPLRALVCNAAVYYPLLKEPIYSVDGYEITVATNHLGHFLLINLLLEDLKNSPESDKRLVILGTVTANRKELGGKIPIPAPPDLGNLEGFEKGFKKPIAMINGKPFKSGKAYKDSKLCNMLTARELHRRFHESTGIVFNSLYPGCVADTPLFRHHFPLFQKLFPLFQKKITGGYVSQELAGERVAMVVADPEFRQSGVHWSWGLEHHHHHH	not failed
MSDRFVIWAPSMHNEPAAKCGYCHGNKGGNMDQLFALDSWAHRYMNKMDVVKIENCTIGSFVEHMDVATYDRMCNMGFRRSGKFLYKVDPLRNCCRLYTIRTAPQELNMTKELKKCISRFATRITSEDYCPAAVASSDFVGKIVNAEMNSKTFYTRFEPALYSEEKYHLFVKYQEKVHQDYNNSPKSFKRFLCDTPFGPEAVLGTQESWEQLNNWQRMKPGEKLKHMGPVHECYYYEGKLIAITVSDILPSGISSVYFIWDPDYSKWSLGKLSALRDLAIIQRTNLQYYYLGYYIEDCPKMNYKANYGAEVLDVCHSKYIPLKPIQDMISRGKLFVIGEEETKVTKELYLVDSETGRGEGFPTDNVVKYKNIAEEIYGVGGCAFKSANESALELKELYGIPYEEEDLDTIYHLKEHNGHAPNGIPNVVPGLLPLWELLDIMQSGKITDLEGRLFLFEIETEGIRPLINFYSEPPNVKKRICDVIRLFGFETCMKAVILYSEQM	failed
MSDRGASAPSLPDDWPAHPDPILALNRMGSFDWDLDAGLFHMDAQAHEVFDLRPEEYDGRPESLALRVPTAESRRMDTIVARAMKDGSENYGTYFRLRRRDGTLRWTHTQGYIRRDETGRPRRIIGIVRDATQ	failed
MSDSDAMTDPNAVSYSNAIVVLCTAPDEASAQNLAAQVLGEKLAACVTLLPGATSLYYWEGKLEQEYEVQLLFKSNTDHQQALLTYIKQHHPYQTPELLVLPVRDGDKDYLSWLNASLL	failed
MSDSKFLRGTLIVTLGTFLVKFLGMIYVFPFHALVGTEGGTLYTYGYIPYTIFLSIATAGVPLAVSKFVSKYNALGDYKTSRRMFRSGMVMMIVTGVLSFLVLYMTAPLFAEAMLGKQSIHNNVGEVTTIIRLVSFALIVVPAASLIRGYFQGHQSMGPTTVSQIIEQIIRIVFLLAGSFIVIKVLGGTVATAVGVATFAAFVSAVGALGVLIWYWLKRKKYLDQYLIEQTVPESTVSTVQLFKELFAYAIPYVVIGLTIPLYQQIDTLTFNSIMQAIGQGDIAERALGIFTMWTHKLIMIPVSLATAFSLTLVPAITKSFTEKQYRYLKLQITQTFQANMFLTLPAVVGISSLAYPIYTAFYDSDPLGGQVLMWYAPVALLFALFTVTAAILQGINQQKHAIIALIMGVILKFVCNVIFIRYFGTVGAILATAVGFLASVWYTNQQIKKYAHYSFGVVYKRTFQIAVLTLIMVVAVKLSQWILSFMISPDGRIGALITVAICAGIGGLVYGLLAIRTGVLERVFGGEALDKIQRKLGSRFKIKLKSRGA	not failed
MSDSKFLRGTLIVTLGTFLVKFLGMIYVFPFHALVGTEGGTLYTYGYIPYTIFLSIATAGVPLAVSKFVSKYNALGDYKTSRRMFRSGMVMMIVTGVLSFLVLYMTAPLFAEAMLGKQSVHSNIGEVTTIIRLVSFALIVVPAASLIRGYFQGHQSMGPTTVSQIIEQIIRIVFLLAGSFIVIKVLGGTVATAVGVATFAAFVSAVGALGVLIWYWLKRKKHLDQYLIEQTALESTVSTVQLFKELFAYAIPYVVIGLTIPLYQQIDTLTFNSIMQAIGQGDIAERALGIFTMWTHKLIMIPVSLATAFSLTLVPAITKSFTEKQYRYLKLQITQTFQANMFLTLPAVVGISSLAYPIYTAFYDSDPLGGQVLMWYAPVALLFALFTVTAAILQGINQQKHAIIALIMGVILKFVCNVIFIRYFGTVGAILATAVGFLVSVWYTNQQIKKYAHYSFGVVYKRTFQIAVLTLVMVVTVKLSQWILSFMISPDGRMGALITVAICAGIGGLVYGLLAIRTGVLERVFGGEALEKIQRKLGNRFKIKLKSKGA	failed
MSDSWARSPSLSGYARQEGKFRVAIGAPRGDIPGQGDSSMSTQTAVLKKDITPQGSDYEIVRRAIEKISLDYRDQPSLEELAEEVGETPTGLQKLFTRWAGLSPKAFLQAVTLDHARRLLDSGMPLLETSFELGMSGPGRLHDLFVTHEAMSPGDYKTRGAGLTIRYGYHASPFGTALIMATDRGLAGLAFSDPGEERAAFADMSSRWPNAIYVEDLAATGPYAARIFDPTLWRPDQPLHVVMIGTDFQVRVWEALLQIPMGKARTYSSIAASIGAPSASRAVGAANGANPLSFVVPCHRAIGKSGDLTGYHWGLTRKRAILGWEAGQVSS	failed
MSDTGNYLGPFLVNDFGDRYLYQVNRNAFNSIGSDSLYASTYGESLFAEYQLNIIIGTDSGLFPTYVVNKGIPSGSRYLFIELPEVIERLSEEGILKELPPEVIIATPDTWEEIATDLQINEYVFIDAVRVNESIASSDANLPEYRDISWNINLNVRTLVHETHASINCTQYILRQLENLAENRVAFSRTLVDTFKGRTAVILAGGPSLREALPWVRENRDRLVLIAVSRISKILQSEQIVPHLVATVDPQKVSFEVSREMLYFADMEESPVLVSSYHASPLLVGQWGGRSAYTDSLFPWSTPLNIETHLYTGPTVSNYALSIAMNMGCETIVLAGVDLCFSREGHTHAAGSAENKVGPDLGQLSPRIETNGGWLADTNHGYAHSLEILKLQAELAVSKGHRLYNISLGAAKIPLIEYRPPSEIDLPEDTISTSALIDKYLPPPTSKARLSHYRKIKKELERAQHKFKEILSLSQEALECTDGLFGRNGKERSFRHKVQMDKIERKLDRRYGDFSLLVKQFGLKKFLSILRTPKEEQEWTDEQIEKATRDYYQAYMAGTIQLLAVTNSALSRIEARIEEEKSSPDCDLFISQWLRDGQPGRGRFWLRNHPVTAQCLSEAILGKFRELDDQFTHLMTDEQTIRMELLEKGYDLKHIRSKARLLFRRGEREELEAMAAGIASHPDREKAEPYLYFINGLIAELQQEPNRAIECYQHLLVDPPHPTTEDALRQIASLAIAGNDVENALLALECLSRMSPAYLSPYGEILKALGRYDEAFDAFNRYLSIAPKDVGTLVTLGILCRDAGLADTARDLFARVLENDPTNRVALSQLEGLAAPSND	failed
MSDVMTLKKSDIYNSDGSVKHTAFIHDKKTGKANTLYLKPVQQDLLQYHDWLVQENINSEWLFPSASHHNRHITEKQFYKVMARVGDLLSINYHYLGTHTMRKTGAYRVYTQSNYNIGLVMHLLNHSSEVMTLTYLGLDHASRETMLDQIDFG	failed
